The record followed here is patent publication US20150166647A1 (VLST, published 2015).

One experiment addresses T1, mouse MIP-1β/CCL4 (mouse, UniProt P14097 24-92).
T1 construct: also called muMIP-1β
T1 sequence: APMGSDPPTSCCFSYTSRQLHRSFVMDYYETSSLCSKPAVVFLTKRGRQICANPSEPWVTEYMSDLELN
The experiment is described as follows: MSD electrochemiluminescence, chemokine coated at 1 µg/mL.

Another experiment deals with T2, mouse MIP-1α/CCL3 (mouse, UniProt P10855 24-92).
T2 construct: also called muMIP-1α
T2 sequence: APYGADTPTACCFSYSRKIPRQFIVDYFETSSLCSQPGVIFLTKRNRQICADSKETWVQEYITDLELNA
The experiment is described as above.

For another experiment, the target named is T3, mouse RANTES/CCL5 (mouse, UniProt P30882 24-91).
T3 construct: also called muRANTES
T3 sequence (P30882 24-91 limits assumed): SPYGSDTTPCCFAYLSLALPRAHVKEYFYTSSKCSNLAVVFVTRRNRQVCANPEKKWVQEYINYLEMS
The description is as above.

For another experiment, the target named is T4, human RANTES/CCL5 (human, UniProt P13501 24-91).
T4 construct: also called Biotin-RANTES
T4 sequence: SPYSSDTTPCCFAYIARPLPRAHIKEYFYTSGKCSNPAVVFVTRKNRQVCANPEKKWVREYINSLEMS
The experiment is described as follows: ELISA, hybridoma fusion-well supernatant on biotinylated chemokine on streptavidin plate; background approx. 0.150.

In another experiment the target is T5, human MCP-1/CCL2 (human, UniProt P13500 24-99).
T5 construct: also called Biotin-MCP1
T5 sequence (P13500 24-99 limits assumed): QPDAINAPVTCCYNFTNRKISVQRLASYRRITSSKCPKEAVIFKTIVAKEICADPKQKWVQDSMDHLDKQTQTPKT
The experiment is described as above.

A further experiment has as its target T6, human MIP-1β/CCL4 (human, UniProt Q8NHW4 24-92).
T6 construct: also called Biotin-MIP-1β
T6 chain: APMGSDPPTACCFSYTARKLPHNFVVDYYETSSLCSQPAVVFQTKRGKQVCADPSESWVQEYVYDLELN
Described as above.

The target in another experiment is T7, human PARC/CCL18 (human, UniProt P55774 21-89).
T7 sequence: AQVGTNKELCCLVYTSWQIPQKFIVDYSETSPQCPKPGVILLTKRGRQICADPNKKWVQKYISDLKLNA
Description: MSD electrochemiluminescence assay; chemokine coated at 1 µg/mL, 7D12A at 3 µg/mL; background = BSA.

A further experiment addresses T8, MCP-2.
T8 construct: also called MCP-2/CCL8; CCL8
T8 chemokine: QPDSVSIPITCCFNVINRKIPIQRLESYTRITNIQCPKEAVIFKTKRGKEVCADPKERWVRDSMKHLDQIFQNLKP
The description is as above.

In the next experiment the target is T9, I-309.
T9 construct: also called I-309/CCL1; CCL1
T9 chemokine: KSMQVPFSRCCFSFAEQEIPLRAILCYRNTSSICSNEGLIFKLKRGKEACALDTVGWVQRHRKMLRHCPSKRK
The description is as above.

A further experiment concerns the target T10, human HCC-1/CCL14/CCL14a (human, UniProt Q16627 28-93).
T10 sequence: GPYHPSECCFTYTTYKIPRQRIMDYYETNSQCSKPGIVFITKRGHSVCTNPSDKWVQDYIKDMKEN
The experiment is described as above.

The next experiment has as its target T11, MCP-4.
T11 construct: also called MCP-4/CCL13; CCL13
Described as above.

A further experiment addresses T12, MCP-3.
T12 construct: also called MCP-3/CCL7; CCL7
The experiment is described as above.

A further experiment addresses T13, IL-8.
T13 construct: also called IL-8/CXCL8; CXCL8
Described as above.

The target in a further experiment is T14, HCC-4.
T14 construct: also called HCC-4/CCL16; CCL16
T14 chemokine: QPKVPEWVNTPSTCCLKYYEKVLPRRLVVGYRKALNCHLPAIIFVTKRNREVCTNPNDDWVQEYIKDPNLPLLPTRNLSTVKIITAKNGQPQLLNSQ
The experiment is described as above.

In the next experiment the target is T15, Eotaxin.
T15 construct: also called Eotaxin/CCL11; CCL11
T15 sequence (chemokine, as listed by the source): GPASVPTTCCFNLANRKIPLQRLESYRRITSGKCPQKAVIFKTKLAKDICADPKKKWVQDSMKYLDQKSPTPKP
The description is as above.

In the next experiment the target is T16, Fractalkine.
T16 construct: also called Fractalkine/CX3CL1; CX3CL1
T16 chemokine: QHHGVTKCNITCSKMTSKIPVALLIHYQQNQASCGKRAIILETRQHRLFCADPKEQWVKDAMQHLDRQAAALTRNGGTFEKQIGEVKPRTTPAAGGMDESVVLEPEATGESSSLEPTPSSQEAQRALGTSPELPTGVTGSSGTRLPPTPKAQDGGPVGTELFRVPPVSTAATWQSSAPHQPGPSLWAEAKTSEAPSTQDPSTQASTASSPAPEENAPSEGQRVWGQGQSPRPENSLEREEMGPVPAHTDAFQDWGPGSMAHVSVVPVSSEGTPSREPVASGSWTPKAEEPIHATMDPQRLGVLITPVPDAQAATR
Described as above.

For a further experiment, the target named is T17, ELC.
T17 construct: also called ELC/MIP-3β/CCL19; CCL19
T17 chemokine: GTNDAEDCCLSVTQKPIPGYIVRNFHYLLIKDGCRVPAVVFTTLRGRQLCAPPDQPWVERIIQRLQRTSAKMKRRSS
The description is as above.

The next experiment addresses T18, human MIP-1α/CCL3 (human, UniProt P10147 24-92).
T18 construct: also called Biotin-MIP-1α
T18 sequence: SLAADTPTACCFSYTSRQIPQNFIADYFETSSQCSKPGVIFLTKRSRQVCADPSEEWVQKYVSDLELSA
Description: ELISA, hybridoma fusion-well supernatant on coated MIP-1α; background approx. 0.150. Background: ELISA stands for enzyme-linked immunosorbent assay.

T12 sequence (chemokine, as listed by the source): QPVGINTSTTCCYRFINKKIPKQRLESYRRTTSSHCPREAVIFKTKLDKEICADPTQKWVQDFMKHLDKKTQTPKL
T13 sequence (chemokine, as listed by the source): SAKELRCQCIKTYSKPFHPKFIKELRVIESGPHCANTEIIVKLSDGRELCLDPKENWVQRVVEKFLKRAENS
T11 sequence (chemokine, as listed by the source): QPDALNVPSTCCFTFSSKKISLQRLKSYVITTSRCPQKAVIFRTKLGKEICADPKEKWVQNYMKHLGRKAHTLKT

B1: monoclonal antibody 18V4F (antibody, V domains shown)
VH: QVQLKESGPGLVAPSQSLSITCTVSGFSLTGYGIHWVRQPPGKGLEWLGVIWPGGGTNYNSALMSRLSISKDNSKSQVFLKMNSLQTDDTAMYYCARGPLITTEVSMDYWGQGTSVTVSS
VL: QAVVTQESALTTSPGETVTLTCRSNTGAVTTSNYANWVQEKPDHLFTGLIGGTNNRAPGVPARFSGSLIGDKAALTITGAQTEDEAIYFCALWYSNHWVFGGGTKLTVLG
notes: also called MAb 18V4F
On to B1, for which the binding result in the experiment with mouse MIP-1β/CCL4, with mouse MIP-1α/CCL3 and with mouse RANTES/CCL5 was “no binding (tested: 3 µg/mL)” in each case.

B2: monoclonal antibody 7D12A (antibody, V domains shown)
VH: EVHLQESGPSLVKPSQTLSLTCSVTGDSITNGYWNWIRKFPGNKLDYMGYISYDGNTYYNPSLKSRFSITRDTSKNQYYLQLNSVTTEDTATYYCSRGDYGTYVMDYWGQGTSVTVSS
VL: NIVLTQSPVSLAVSLGQRATISCRASESVDSHGNSFMHWYQQKPGQPPKLLIYLASNLESGVPARFTGGGSGSDFTLTIDPVEADDVGTYYCQQNNEDPYTFGGGTKLEIK
notes: also called MAb 7D12A
On to B2, for which the ELISA signal turned out to be 0.178 with human RANTES/CCL5, 0.246 in the experiment with human MCP-1/CCL2, 2.68 with human MIP-1β/CCL4 and 1.47 in the experiment with human MIP-1α/CCL3. For the same molecule, the binding result with human PARC/CCL18, with MCP-2, with I-309, in the experiment with human HCC-1/CCL14/CCL14a, with MCP-4 and in the experiment with MCP-3 was “no binding (tested: 3 µg/mL)” throughout. The binding result with IL-8, with HCC-4, with Eotaxin, with Fractalkine, with ELC and in the experiment with mouse MIP-1β/CCL4 was “no binding (tested: 3 µg/mL)” each time. For the same molecule, the binding result in the experiment with mouse MIP-1α/CCL3 and with mouse RANTES/CCL5 was “no binding (tested: 3 µg/mL)” in each case.
